Biological target: T1, C-reactive protein (CRP) (UniProt P02741 19-224)
T1 sequence: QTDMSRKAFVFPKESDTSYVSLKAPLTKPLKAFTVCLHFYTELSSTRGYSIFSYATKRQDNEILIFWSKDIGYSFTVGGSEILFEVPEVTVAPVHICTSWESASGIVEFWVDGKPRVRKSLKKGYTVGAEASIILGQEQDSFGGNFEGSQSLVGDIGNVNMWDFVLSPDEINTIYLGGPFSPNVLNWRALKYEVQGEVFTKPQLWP
Experiment: fluorescence recovery from graphene oxide

B1: FAM-labeled CRP aptamer (ssDNA)
DNA: GGCAGGAAGACAAACATATAATTGAGATCGTTTGATGACTTTGTAAGAGTGTGGAATGGTCTGTGGTGCTGT
B1: binds.

From PMC12575793
